Test results from the supplement of paper PMC10724198.
± gives the standard deviation of the averaged measurements.

System: Saccharomyces cerevisiae
Assay: protein stability index of tFT-peptide fusion (C-terminal peptide) (PSI (0-1 scale)); higher = more stable (slower turnover)
Settings: genetic background: cdc34-1; temperature: 37 C
Procedure: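 MPS profiling in S. cerevisiae of the tFT-X12 degron library: putative degron peptides plus stable controls, 12 aa, fused to the C-terminus of a sfGFP-mCherry timer. Cells are FACS-sorted into 8 mCherry/sfGFP bins and deep-sequenced. PSI runs from 0 (unstable) to 1 (stable). Backgrounds are wild type, das1Δ and doa10Δ at 30 °C, and wild type, das1Δ, cdc34-1 and cdc53-1 at 37 °C; 2-3 technical replicates each.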
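Also: PSI is a weighted mean of sequencing reads over stability bins, variants kept only with over 10 reads, mCherry proximal and sfGFP distal, peptide attached via GGGS linker.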

Sequence	protein stability index
AALFNYVVCFCA	0.474 ± 0.059
AASRVIYLLNLF	0.653 ± 0.034
AFRFHTYFLLLC	0.0472 ± 0.006
AGLLVLISWRLF	0.0795 ± 0.014
AKVFGLILVLLT	0.211 ± 0.026
ALEIIRLSHRLC	0.498 ± 0.048
APEWGGGDEWWG	0.75 ± 0.04
APPFPSLSSFAP	0.679 ± 0.039
APPPVAPAPGSA	0.65 ± 0.026
APPRLPLLSCSQ	0.652 ± 0.021
APPSRRLTLRLA	0.577 ± 0.039
APRPSYSLLALL	0.733 ± 0.034
ASVSVWCVSVVV	0.124 ± 0.017
AVLSFVLVRSVV	0.58 ± 0.052
AWVLISNRRRIM	0.62 ± 0.071
AYPAHQLLVSCL	0.509 ± 0.012
CCGWSGCVSGVL	0.698 ± 0.029
CCMLCVVAWSGV	0.424 ± 0.044
CCSGWSVRLLCV	0.578 ± 0.066
CCVLGDRCIGSD	0.699 ± 0.018
CFGIFWLFARLK	0.281 ± 0.07
CFVWFSVVLLFA	0.109 ± 0.015
CFYSRTIILEHC	0.503 ± 0.1
CGCLPYIGTKLC	0.463 ± 0.076

Sequence	protein stability index
CHSICLVILEFI	0.183 ± 0.0091
CIFLLMAILSLA	0.48 ± 0.055
CIIAVMISIVSF	0.0342 ± 0.0065
CILVSVDVIVFF	0.0529 ± 0.014
CLAGALSWLRRG	0.704 ± 0.034
CLLLFFIFLLFL	0.484 ± 0.065
CLLLILCFLCVR	0.382 ± 0.0078
CLRFVFWFVCFV	0.227 ± 0.047
CLVISVLFGVVA	0.2376 ± 0.00026
CLYATQFWGRYG	0.69 ± 0.062
CPYSNAFALCVF	0.153 ± 0.023
FLPPVHRCFSIF	0.671 ± 0.037
GFLFVLCAWGFF	0.178 ± 0.017
GGGWGGRWGRLC	0.639 ± 0.047
GPPVPLSPPLSP	0.701 ± 0.042
KQSGLQIKRRKL	0.711 ± 0.043
LVCSLLVPSSFF	0.679 ± 0.0081
QRAVGLANFTIK	0.672 ± 0.065
RPPPYSPRLFHN	0.469 ± 0.0049
RSRNSEYILVYN	0.655 ± 0.018
TGGGGRVSLGGG	0.337 ± 0.053
VFYWGGVLCGWG	0.337 ± 0.035
WLISLLVQPVFL	0.295 ± 0.0052

Same assay, conditions: genetic background: cdc53-1; temperature: 37 C

Sequence	protein stability index
AALFNYVVCFCA	0.537 ± 0.035
AASRVIYLLNLF	0.753 ± 0.008
AFRFHTYFLLLC	0.0404 ± 0.0043
AGLLVLISWRLF	0.213 ± 0.036
AKVFGLILVLLT	0.349 ± 0.027
ALEIIRLSHRLC	0.689 ± 0.022
APEWGGGDEWWG	0.802 ± 0.015
APPFPSLSSFAP	0.744 ± 0.038
APPPVAPAPGSA	0.701 ± 0.015
APPRLPLLSCSQ	0.712 ± 0.0095
APPSRRLTLRLA	0.696 ± 0.019
APRPSYSLLALL	0.858 ± 0.13
ASVSVWCVSVVV	0.166 ± 0.0023
AVLSFVLVRSVV	0.619 ± 0.012
AWVLISNRRRIM	0.747 ± 0.011
AYPAHQLLVSCL	0.511 ± 0.021
CCGWSGCVSGVL	0.7602 ± 0.0038
CCMLCVVAWSGV	0.517 ± 0.097
CCSGWSVRLLCV	0.606 ± 0.036
CCVLGDRCIGSD	0.735 ± 0.011
CFGIFWLFARLK	0.32 ± 0.03
CFVWFSVVLLFA	0.159 ± 0.0066
CFYSRTIILEHC	0.506 ± 0.0072
CGCLPYIGTKLC	0.711 ± 0.026

Sequence	protein stability index
CHSICLVILEFI	0.338 ± 0.049
CIFLLMAILSLA	0.558 ± 0.0093
CIIAVMISIVSF	0.0959 ± 0.012
CILVSVDVIVFF	0.147 ± 0.043
CLAGALSWLRRG	0.7646 ± 0.006
CLLLFFIFLLFL	0.452 ± 0.0092
CLLLILCFLCVR	0.355 ± 0.017
CLRFVFWFVCFV	0.238 ± 0.0095
CLVISVLFGVVA	0.269 ± 0.067
CLYATQFWGRYG	0.74 ± 0.019
CPYSNAFALCVF	0.237 ± 0.022
FLPPVHRCFSIF	0.742 ± 0.013
GFLFVLCAWGFF	0.321 ± 0.039
GGGWGGRWGRLC	0.754 ± 0.0091
GPPVPLSPPLSP	0.695 ± 0.045
KQSGLQIKRRKL	0.75156 ± 0.00069
LVCSLLVPSSFF	0.7 ± 0.074
QRAVGLANFTIK	0.7512 ± 0.0062
RPPPYSPRLFHN	0.706 ± 0.031
RSRNSEYILVYN	0.672 ± 0.039
TGGGGRVSLGGG	0.427 ± 0.032
VFYWGGVLCGWG	0.502 ± 0.074
WLISLLVQPVFL	0.3167 ± 0.0022

Same assay, conditions: genetic background: das1 deletion; temperature: 30 C

Sequence	protein stability index
AALFNYVVCFCA	0.377 ± 0.025
AASRVIYLLNLF	0.6272 ± 0.0031
AFRFHTYFLLLC	0.153 ± 0.04
AGLLVLISWRLF	0.171 ± 0.029
AKVFGLILVLLT	0.227 ± 0.023
ALEIIRLSHRLC	0.618 ± 0.008
APEWGGGDEWWG	0.691 ± 0.014
APPFPSLSSFAP	0.7 ± 0.016
APPPVAPAPGSA	0.653 ± 0.035
APPRLPLLSCSQ	0.661 ± 0.05
APPSRRLTLRLA	0.6614 ± 0.0066
APRPSYSLLALL	0.711 ± 0.04
ASVSVWCVSVVV	0.103 ± 0.02
AVLSFVLVRSVV	0.417 ± 0.026
AWVLISNRRRIM	0.648 ± 0.033
AYPAHQLLVSCL	0.405 ± 0.026
CCGWSGCVSGVL	0.638 ± 0.014
CCMLCVVAWSGV	0.303 ± 0.027
CCSGWSVRLLCV	0.494 ± 0.033
CCVLGDRCIGSD	0.635 ± 0.013
CFGIFWLFARLK	0.289 ± 0.022
CFVWFSVVLLFA	0.134 ± 0.028
CFYSRTIILEHC	0.464 ± 0.0086
CGCLPYIGTKLC	0.647 ± 0.028

Sequence	protein stability index
CHSICLVILEFI	0.25 ± 0.05
CIFLLMAILSLA	0.363 ± 0.029
CIIAVMISIVSF	0.0327 ± 0.018
CILVSVDVIVFF	0.118 ± 0.051
CLAGALSWLRRG	0.662 ± 0.015
CLLLFFIFLLFL	0.387 ± 0.036
CLLLILCFLCVR	0.343 ± 0.021
CLRFVFWFVCFV	0.254 ± 0.03
CLVISVLFGVVA	0.218 ± 0.034
CLYATQFWGRYG	0.629 ± 0.025
CPYSNAFALCVF	0.22 ± 0.026
FLPPVHRCFSIF	0.653 ± 0.022
GFLFVLCAWGFF	0.227 ± 0.022
GGGWGGRWGRLC	0.6543 ± 0.0029
GPPVPLSPPLSP	0.35 ± 0.024
KQSGLQIKRRKL	0.617 ± 0.019
LVCSLLVPSSFF	0.634 ± 0.016
PPPPPPPAPASP	0.665 ± 0.13
QRAVGLANFTIK	0.647 ± 0.043
RPPPYSPRLFHN	0.67 ± 0.031
RSRNSEYILVYN	0.397 ± 0.045
TGGGGRVSLGGG	0.384 ± 0.021
VFYWGGVLCGWG	0.309 ± 0.03
WLISLLVQPVFL	0.276 ± 0.029

Same assay, conditions: genetic background: das1 deletion; temperature: 37 C

Sequence	protein stability index
AALFNYVVCFCA	0.512 ± 0.013
AASRVIYLLNLF	0.736 ± 0.027
AFRFHTYFLLLC	0.184 ± 0.0066
AGLLVLISWRLF	0.337 ± 0.0065
AKVFGLILVLLT	0.407 ± 0.025
ALEIIRLSHRLC	0.731 ± 0.009
APEWGGGDEWWG	0.804 ± 0.019
APPFPSLSSFAP	0.737 ± 0.03
APPPVAPAPGSA	0.7043 ± 0.0061
APPRLPLLSCSQ	0.6939 ± 0.00016
APPSRRLTLRLA	0.709 ± 0.017
APRPSYSLLALL	0.783 ± 0.026
ASVSVWCVSVVV	0.1641 ± 0.00088
AVLSFVLVRSVV	0.604 ± 0.017
AWVLISNRRRIM	0.745 ± 0.025
AYPAHQLLVSCL	0.5435 ± 0.0014
CCGWSGCVSGVL	0.7418 ± 0.0014
CCMLCVVAWSGV	0.5581 ± 0.0018
CCSGWSVRLLCV	0.625 ± 0.025
CCVLGDRCIGSD	0.76 ± 0.019
CFGIFWLFARLK	0.422 ± 0.0073
CFVWFSVVLLFA	0.227 ± 0.0053
CFYSRTIILEHC	0.5003 ± 0.0025
CGCLPYIGTKLC	0.766 ± 0.013

Sequence	protein stability index
CHSICLVILEFI	0.436 ± 0.011
CIFLLMAILSLA	0.534 ± 0.023
CIIAVMISIVSF	0.14 ± 0.035
CILVSVDVIVFF	0.207 ± 0.0033
CLAGALSWLRRG	0.745 ± 0.022
CLLLFFIFLLFL	0.463 ± 0.032
CLLLILCFLCVR	0.4415 ± 0.00095
CLRFVFWFVCFV	0.351 ± 0.0079
CLVISVLFGVVA	0.382 ± 0.0091
CLYATQFWGRYG	0.7737 ± 0.005
CPYSNAFALCVF	0.316 ± 0.0064
FLPPVHRCFSIF	0.745 ± 0.021
GFLFVLCAWGFF	0.386 ± 0.019
GGGWGGRWGRLC	0.75462 ± 8e-05
GPPVPLSPPLSP	0.5534 ± 0.0029
KQSGLQIKRRKL	0.7734 ± 0.0051
LVCSLLVPSSFF	0.722 ± 0.0063
PPPPPPPAPASP	0.68 ± 0.048
QRAVGLANFTIK	0.7328 ± 0.0028
RPPPYSPRLFHN	0.75 ± 0.01
RSRNSEYILVYN	0.6343 ± 0.0031
TGGGGRVSLGGG	0.44 ± 0.022
VFYWGGVLCGWG	0.514 ± 0.014
WLISLLVQPVFL	0.4053 ± 0.0021

Same assay, conditions: genetic background: doa10 deletion; temperature: 30 C

Sequence	protein stability index
AALFNYVVCFCA	0.301 ± 0.0065
AASRVIYLLNLF	0.197 ± 0.0028
AFRFHTYFLLLC	0.0686 ± 0.021
AGLLVLISWRLF	0.124 ± 0.013
AKVFGLILVLLT	0.201 ± 0.017
ALEIIRLSHRLC	0.0821 ± 0.0079
APEWGGGDEWWG	0.697 ± 0.015
APPFPSLSSFAP	0.693 ± 0.032
APPPVAPAPGSA	0.647 ± 0.041
APPRLPLLSCSQ	0.684 ± 0.045
APPSRRLTLRLA	0.142 ± 0.003
APRPSYSLLALL	0.375 ± 0.01
ASVSVWCVSVVV	0.087 ± 0.024
AVLSFVLVRSVV	0.399 ± 0.031
AWVLISNRRRIM	0.187 ± 0.0092
AYPAHQLLVSCL	0.351 ± 0.016

Sequence	protein stability index
CCGWSGCVSGVL	0.651 ± 0.012
CCMLCVVAWSGV	0.257 ± 0.0051
CCSGWSVRLLCV	0.243 ± 0.0063
CCVLGDRCIGSD	0.631 ± 0.013
CFGIFWLFARLK	0.343 ± 0.018
CFVWFSVVLLFA	0.136 ± 0.0019
CFYSRTIILEHC	0.23 ± 0.015
CGCLPYIGTKLC	0.087 ± 0.036
CHSICLVILEFI	0.183 ± 0.03
CIFLLMAILSLA	0.2341 ± 0.00064
CIIAVMISIVSF	0.02686 ± 0.00016
CILVSVDVIVFF	0.103 ± 0.016
CLAGALSWLRRG	0.637 ± 0.013
CLLLFFIFLLFL	0.49 ± 0.026
CLLLILCFLCVR	0.364 ± 0.028
CLRFVFWFVCFV	0.268 ± 0.0087
